The source of these data is paper PMC5765332, “Evaluation of the Possible Utilization of ^68Ga-DOTATOC in Diagnosis of Adenocarcinoma Breast Cancer” (Asia Oceania Journal of Nuclear Medicine and Biology, 2018).

Series [1] can be described thus: in vivo. Further details: species or system BALB/c mice. Conditions: female, BALB/c, mouse, iv, 5.55 MBq, total radioactivity. The procedure:
A few BALB/c mice that previously injected with spontaneous Murine Mammary Adenocarcinoma Cells (MMAC) which has been histopathologically approved for invasive ductal carcinoma, grade II/III, ([18]) were provided from Pasteur Institute, Tehran, Iran. These mice breast tumor model were used for development of the tumor allograft in other healthy Balb/c mice. For this purpose, the tumor allograft development was performed according to the previously reported procedure ([19]). Adenocarcinoma breast tumors of the mice were brought out and divided to 2–3 mm^3 segments. These segments were implanted percutaneously in the right side of the flank of inbred female BALB/c mice (16–25 g, 6–8 weeks old, Pasteur Institute, Tehran, Iran). 24-31 days post implantation, the tumor volume reached 70–80 mm^3. 5.55 MBq of final ^68Ga-DOTATOC solution was injected intravenously into the mice through their tail veins. Static PET images were captured for 10 min with three sets of emission images starting 30, 60 and 120 min post injection. In addition, PET emission scans were preceded by CT scans performed for anatomical reference and attenuation correction (spatial resolution 1.25 mm, 80 kV, 150 mAs) with a total CT scanning time of 20 s. Reconstruction was performed using the iterative algorithm with attenuation correction. The reconstruction settings were 4 iterations and 21 subsets to a 256×256 matrix, with a post-filtering of 2 mm. Transmission data were reconstructed within a matrix of equal size by means of filtered back-projection, yielding a co-registered image set. The reconstructed emission images were reformatted into coronal, sagittal and maximum intensity projection (MIP) image sets. Maximum, average and minimum standardized uptake values (SUV) for the observable organs in the images were calculated based on the region of interest (ROI) and according to Eq. 1: where C is the tissue radioactivity concentration (kBq/mL), I is the decay-corrected amount of injected radiolabeled complex [kBq], and w is the weight (g).

The subject of series [2] is BALB/c mice with adenocarcinoma breast cancer. The series can be described thus: in vivo. Conditions: mouse, iv. On the procedure: (§1) A few BALB/c mice that previously injected with spontaneous Murine Mammary Adenocarcinoma Cells (MMAC) which has been histopathologically approved for invasive ductal carcinoma, grade II/III, ([18]) were provided from Pasteur Institute, Tehran, Iran. These mice breast tumor model were used for development of the tumor allograft in other healthy Balb/c mice. For this purpose, the tumor allograft development was performed according to the previously reported procedure ([19]). Adenocarcinoma breast tumors of the mice were brought out and divided to 2–3 mm^3 segments. These segments were implanted percutaneously in the right side of the flank of inbred female BALB/c mice (16–25 g, 6–8 weeks old, Pasteur Institute, Tehran, Iran). 24-31 days post implantation, the tumor volume reached 70–80 mm^3. 100 μL of the radiolabeled complex with approximately 5.55 MBq radioactivity was injected intravenously into the BALB/c mice with adenocarcinoma breast cancer through their tail vein. The total amount of radioactivity injected into each animal was measured by counting the 1-mL syringe before and after injection in a dose calibrator with the fixed geometry. Biodistribution of the complex among tissues was determined by sacrificing the BALB/c mice at each selected time (15, 30 and 60 m) after injection using the animal care protocols. Blood samples were rapidly taken after scarification. The tissues (heart, kidneys, spleen, stomach, intestine, lung, liver, skin, bone, muscle, adrenal, pancreas and tumor) were weighed and rinsed with normal saline and their activities were determined with a p-type coaxial HPGe detector coupled with a multichannel analyzer. The percentage of injected dose per gram (%ID/g) for different organs was calculated by dividing the activity amount of each tissue (A) to the decay-corrected injected activity and the mass of each organ. Four […] were considered for each time interval. All values were expressed as mean ± standard deviation (Mean±SD) and the data were compared using Student’s T-test. P values of < 0.05 were considered statistically significant.

Series [3] in a line: in vivo. Further details: species or system BALB/c mice. Particulars: female, BALB/c, mouse, iv, 5.55 MBq, total radioactivity. The procedure: as §1
The source holds these as a separate data set.

With `C[C@@H](O)[C@@H]1NC(=O)[C@H](CCCCN)NC(=O)[C@@H](Cc2c[nH]c3ccccc23)NC(=O)[C@H](Cc2ccc(O)cc2)NC(=O)[C@@H](NC(=O)[C@@H](Cc2ccccc2)NC(=O)CN2CCN(CC(=O)O)CCN(CC(=O)O)CCN(CC(=O)O)CC2)CSSC[C@@H](C(=O)N[C@H](CO)[C@@H](C)O)NC1=O` [^68Ga-DOTATOC, metal not drawn], in “in vivo [1]”, the SUV at 0.5 h was 0.66 SUV, the SUV at 1 h was determined as 0.28 SUV and the SUV at 2 h came to 0.18 SUV. The “blood clearance (in words)” value in series [2] was “fast blood clearance”. Besides, in “in vivo [3]” (Tumor/blood ratio), the tissue to tissue ratio at 0.25 h came to 2.38, the tissue to tissue ratio at 0.5 h was 3.37 and the tissue to tissue ratio at 1 h was 9.92. In “in vivo [3]” (Tumor/muscle ratio), the tissue to tissue ratio at 0.25 h stood at 18.7, the tissue to tissue ratio at 0.5 h came out at 20.8 and the tissue to tissue ratio at 1 h was found to be 19.8.
